Results reported in publication PMC2878840.

Molecular target: hypoglycosylated E-cadherin variant V13 (V13-flag) (human)
Experiment: co-IP

fold change of co-precipitated PP2A against wild type E-cadherin: 2 fold
Substance: protein phosphatase 2A catalytic subunit (from UniProt A0A8I3NN81 1-306) (enzyme)
